Measured values: patent US10407503B2, “Fully human antibodies and fragments recognizing human c-Met” (THE REGENTS OF THE UNIVERSITY OF CALIFORNIA, priority 2012, dated 2019)
Entries after “also recorded” stand apart in the source; their conditions may differ.

Experiments:
mouse MET protein = target: T1, mouse MET protein (Mus musculus, UniProt P16056); experiment: Anti-MET ELISA, mouse MET-hIgG Fc captured by coated cys-diabodies (cross reactivity); assay type: binding; conditions: coated cys-diabody captures mouse MET-hFc
T1 construct: purchased Sino Biological Inc
T1 sequence (P16056 with tags, fused parts or gaps limits assumed): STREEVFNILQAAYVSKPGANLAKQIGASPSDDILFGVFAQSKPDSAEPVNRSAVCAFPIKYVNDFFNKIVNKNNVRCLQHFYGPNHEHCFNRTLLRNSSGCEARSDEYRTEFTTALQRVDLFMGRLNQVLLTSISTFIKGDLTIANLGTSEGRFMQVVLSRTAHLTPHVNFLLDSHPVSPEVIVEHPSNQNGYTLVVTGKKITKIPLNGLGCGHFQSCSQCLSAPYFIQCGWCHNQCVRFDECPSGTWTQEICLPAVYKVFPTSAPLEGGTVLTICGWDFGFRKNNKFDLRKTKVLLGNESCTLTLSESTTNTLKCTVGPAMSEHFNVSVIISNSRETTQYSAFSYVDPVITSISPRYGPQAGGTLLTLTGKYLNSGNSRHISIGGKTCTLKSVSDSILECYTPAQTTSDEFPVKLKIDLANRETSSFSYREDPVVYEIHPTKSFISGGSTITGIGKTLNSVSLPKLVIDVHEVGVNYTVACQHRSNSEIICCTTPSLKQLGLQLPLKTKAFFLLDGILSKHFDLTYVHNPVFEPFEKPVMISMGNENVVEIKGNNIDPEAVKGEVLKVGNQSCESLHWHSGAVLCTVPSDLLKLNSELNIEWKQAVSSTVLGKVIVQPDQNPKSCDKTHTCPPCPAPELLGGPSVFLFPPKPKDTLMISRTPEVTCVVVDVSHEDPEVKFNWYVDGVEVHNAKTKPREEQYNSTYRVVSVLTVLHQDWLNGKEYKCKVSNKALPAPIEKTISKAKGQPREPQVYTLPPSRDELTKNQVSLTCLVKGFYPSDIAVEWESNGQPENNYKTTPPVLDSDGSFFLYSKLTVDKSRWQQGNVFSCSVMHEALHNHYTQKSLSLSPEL
T1 sequence (P16056 25-306 limits assumed): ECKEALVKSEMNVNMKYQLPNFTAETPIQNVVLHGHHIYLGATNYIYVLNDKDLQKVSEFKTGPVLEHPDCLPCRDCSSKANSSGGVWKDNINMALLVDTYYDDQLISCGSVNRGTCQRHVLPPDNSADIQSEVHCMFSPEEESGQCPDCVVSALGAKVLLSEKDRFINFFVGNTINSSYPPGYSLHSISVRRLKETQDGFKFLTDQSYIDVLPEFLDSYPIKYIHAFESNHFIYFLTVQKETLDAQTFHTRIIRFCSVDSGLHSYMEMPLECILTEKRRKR
Method: (§1) Three rounds of selections on human MET protein were performed which were successfully reformatted and purified 3 cys-diabodies. C2, H2 and H5 cys-diabodies were tested for cross-reactivity to mouse MET protein. Different cys-diabodies were coated to 96-well plate (milk or anti-EpCAM cys-diabody was used as negative control). Either mouse or human MET protein was applied to the coated cys-diabodies. Then the MET-hFc proteins were detected by anti-human Fc antibody.
(§2) 1 μg of purified anti-MET cys-diabodies in […], PBS were used to coat each well at 4 degree overnight. Anti-EpCAM cys-diabody or 2% milk-PBS were used for negative controls. The overnight coated plate was then washed with PBS and blocked with 2% milk-PBS at 37 degree for 2 hours. […] The captured human or mouse MET-hIgG Fc were detected with alkaline phosphatase conjugated goat anti-human IgG.
(§3) C2, H2 and H5 cys-diabodies were used to coat 96-well ELISA plate to capture human or mouse MET-hIgG Fc fusion protein. The human IgG Fc on the fusion protein was detected with alkaline phosphatase conjugated goat anti-human IgG. […]
(§4) Three rounds of selections on human MET protein were performed, and three cys-diabodies were reformatted and purified (the C2, H2 and H5 cys-diabodies). […] Then the MET-hFc proteins were detected by anti-human Fc antibody.

Hcc827-GR6 cells = experiment: MTS cell growth assay, gefitinib resistant Hcc827-GR6 cells; assay type: cell-based; conditions: 3 days, with or without 1 μM gefitinib, MET amplified
Method: (§5) These diabodies also show therapeutic effects on resistant cells with MET amplification. […] The diabodies were also applied to the resistant cell line GR6 with or without 1 μM gefitinib.
(§6) Cell growth and inhibition were evaluated by MTS assay. The MTS assay was based on the ability of live cells to convert 3-(4,5-dimethylthiazol-2-yl)-5-(3-carboxymethoxyphenyl)-2-(4-sulfophenyl)-2H-tetrazolium (MTS) to formazan. The quantity of formazan product was measured by 500 nm absorbance, which is proportional to the number of living cells in culture. The assay was performed with the CellTiter96 AQueous Assay Kit from Promega (Cat# G5421), according to the recommended protocol. 2×10^4 cells were seeded in each well of the 96-well plates and treated with different combination of antibodies and drugs for 3 days before the MTS assay. Each combination of cell line and drug and antibody treatment was set up in at least 4 replicate wells. And the results were normalized to the cells treated with media only.
(§7) Different cell lines were treated with C2, H2 or H5 cys-diabodies at different concentrations with or without 1 micromolar of gefitinib for 3 days, and then the cell growth was evaluated with MTS assay. […] All three cys-diabodies show no effects on the parental Hcc827 cells without gefitinib.
These diabodies also show therapeutic effects on resistant cells with MET amplification. The parental cell line, Hcc827, was treated with the diabodies for 3 days, and the diabodies show no effects on the growth of the parental line at all.

human MET protein = target: T2, human MET protein (Homo sapiens, UniProt P08581); experiment: Anti-MET ELISA, human MET-hIgG Fc captured by coated cys-diabodies; assay type: binding; conditions: coated cys-diabody captures human MET-hFc
T2 construct: purchased Sino Biological Inc
T2 sequence (P08581 with tags, fused parts or gaps limits assumed): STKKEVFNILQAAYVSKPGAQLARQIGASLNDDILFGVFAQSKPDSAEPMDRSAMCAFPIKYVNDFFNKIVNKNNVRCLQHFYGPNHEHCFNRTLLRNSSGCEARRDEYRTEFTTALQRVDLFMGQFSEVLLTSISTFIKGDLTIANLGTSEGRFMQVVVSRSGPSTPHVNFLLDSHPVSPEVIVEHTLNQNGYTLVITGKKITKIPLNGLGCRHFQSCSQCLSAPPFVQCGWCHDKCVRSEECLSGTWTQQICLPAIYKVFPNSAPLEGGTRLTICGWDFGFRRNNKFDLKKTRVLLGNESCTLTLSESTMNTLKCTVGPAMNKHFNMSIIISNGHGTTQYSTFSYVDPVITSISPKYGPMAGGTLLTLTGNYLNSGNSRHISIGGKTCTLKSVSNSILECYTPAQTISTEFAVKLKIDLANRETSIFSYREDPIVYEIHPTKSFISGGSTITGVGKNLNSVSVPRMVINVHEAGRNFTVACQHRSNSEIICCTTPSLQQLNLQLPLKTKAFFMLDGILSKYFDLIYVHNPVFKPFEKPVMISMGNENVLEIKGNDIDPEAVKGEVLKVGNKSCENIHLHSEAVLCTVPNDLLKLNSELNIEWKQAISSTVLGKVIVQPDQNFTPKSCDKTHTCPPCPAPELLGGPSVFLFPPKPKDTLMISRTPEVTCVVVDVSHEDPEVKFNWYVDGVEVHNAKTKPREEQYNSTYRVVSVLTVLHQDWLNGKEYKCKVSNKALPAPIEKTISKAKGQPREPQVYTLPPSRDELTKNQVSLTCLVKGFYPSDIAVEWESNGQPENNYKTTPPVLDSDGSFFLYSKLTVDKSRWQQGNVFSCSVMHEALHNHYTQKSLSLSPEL
T2 sequence (P08581 25-307 limits assumed): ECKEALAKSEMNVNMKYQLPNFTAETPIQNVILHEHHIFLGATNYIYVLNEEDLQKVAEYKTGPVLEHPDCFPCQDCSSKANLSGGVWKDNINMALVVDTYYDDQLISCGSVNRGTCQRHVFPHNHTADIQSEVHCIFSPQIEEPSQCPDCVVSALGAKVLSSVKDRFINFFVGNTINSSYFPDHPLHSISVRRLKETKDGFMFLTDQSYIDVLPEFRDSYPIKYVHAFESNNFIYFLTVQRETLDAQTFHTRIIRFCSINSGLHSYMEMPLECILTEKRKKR
Method: as §1, §2, §3, §4

Hcc827 cells = experiment: MTS cell growth assay, parental Hcc827 cells; assay type: cell-based; conditions: 3 days, with 1 micromolar gefitinib
Method: as §5, §6, §7
These diabodies also show therapeutic effects on resistant cells with MET amplification. […]

[1] = target: T3, c-MET on the surface of Hcc827 or Hcc827-GR6 cells (human, UniProt P08581 25-1390); experiment: phage flow cytometry on Hcc827 cells, bound phage detected with FITC anti-M13 antibody
T3 construct: whole, on cells; The cells express the receptor endogenously, and MET is amplified in Hcc827-GR6; also called cell surface MET
T3 sequence (P08581 25-1390): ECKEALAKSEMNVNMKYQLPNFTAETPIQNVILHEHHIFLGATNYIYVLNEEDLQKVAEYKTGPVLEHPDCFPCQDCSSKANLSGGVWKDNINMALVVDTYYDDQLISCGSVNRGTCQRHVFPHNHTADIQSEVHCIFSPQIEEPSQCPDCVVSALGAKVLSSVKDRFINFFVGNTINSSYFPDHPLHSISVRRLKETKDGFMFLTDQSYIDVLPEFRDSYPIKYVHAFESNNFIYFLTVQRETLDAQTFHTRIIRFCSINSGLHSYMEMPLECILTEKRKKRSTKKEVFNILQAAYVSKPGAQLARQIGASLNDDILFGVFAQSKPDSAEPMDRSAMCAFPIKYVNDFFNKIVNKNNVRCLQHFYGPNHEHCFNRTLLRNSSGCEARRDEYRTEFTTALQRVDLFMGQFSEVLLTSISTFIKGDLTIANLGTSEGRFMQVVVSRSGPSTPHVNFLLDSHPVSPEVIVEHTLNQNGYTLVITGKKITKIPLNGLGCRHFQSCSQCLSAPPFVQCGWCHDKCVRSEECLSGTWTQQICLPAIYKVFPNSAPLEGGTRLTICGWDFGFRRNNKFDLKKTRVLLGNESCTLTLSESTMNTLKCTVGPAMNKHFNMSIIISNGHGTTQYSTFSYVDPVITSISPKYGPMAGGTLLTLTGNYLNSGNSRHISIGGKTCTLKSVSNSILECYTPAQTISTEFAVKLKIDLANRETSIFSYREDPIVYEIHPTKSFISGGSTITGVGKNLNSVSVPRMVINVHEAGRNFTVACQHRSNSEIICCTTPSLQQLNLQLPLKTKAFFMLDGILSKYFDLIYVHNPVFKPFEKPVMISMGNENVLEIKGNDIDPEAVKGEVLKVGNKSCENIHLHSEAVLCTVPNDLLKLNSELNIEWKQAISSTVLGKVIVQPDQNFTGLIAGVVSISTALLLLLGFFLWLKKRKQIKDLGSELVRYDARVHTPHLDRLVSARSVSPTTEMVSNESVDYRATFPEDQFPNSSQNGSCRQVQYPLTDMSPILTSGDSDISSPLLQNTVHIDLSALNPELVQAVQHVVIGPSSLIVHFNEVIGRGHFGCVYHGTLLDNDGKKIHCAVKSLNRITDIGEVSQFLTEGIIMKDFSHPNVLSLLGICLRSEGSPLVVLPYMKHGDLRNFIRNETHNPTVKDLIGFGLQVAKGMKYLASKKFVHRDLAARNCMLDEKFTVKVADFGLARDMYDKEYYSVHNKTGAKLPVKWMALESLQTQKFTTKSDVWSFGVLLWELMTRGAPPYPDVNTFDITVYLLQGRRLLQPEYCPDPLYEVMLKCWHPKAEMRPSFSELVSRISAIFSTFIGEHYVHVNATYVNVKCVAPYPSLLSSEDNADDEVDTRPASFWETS
Method: For phage antibodies, flow cytometry was used to confirm their binding to c-MET expressing cells. Bacteria culture containing phage was concentrated 30 times into PBS according to published method (Antibody Engineering Methods and Protocols, Benny K. C. Lo). $2 \sim 5 \times 10^5$ c-MET positive Hcc827 or Hcc827-GR6 cells (Engelman et. al, Science, 2007) were incubated with 100 ul concentrated phage and 30 ul 4% milk-PBS on ice for 1 hour. Cells were then washed using flow buffer (PBS, 1% FBS, 2 mM EDTA), and the binding phage antibodies were detected by FITC conjugated anti-M13 monoclonal antibody (Santa Cruz Biotechnology, Cat# sc-53005 Fitc).

B1: C2 cys-diabody: human anti-c-Met cys-diabody comprising SEQ ID NO:18 (protein)
chain: QVQLQESGGGLVQPGGSLRLSCAASGFTFSSYAMSWVRQAPGKGLEWVSAISGSGGSTYYADSVKGRFTISRDNSKNTLYLQMNSLRAEDTAVYYCASQHVGEQSRYFDYWGQGTLVTVSSGGGGGSDIVMTQSPSSLSASIGDRVTITCRASHSISSYVNWYQKKPGKAPNLLIYAASYLPRGVPSRFSGSGLGTDFTLTISNLQPEDFATYYCQESYSTPYSFGQGTKVDIKRAAAEQKLISEEDLNGAAHHHHHHC
modifications: C2 cys-diabody sequence
For B1, the “cross reactivity to mouse MET protein” value (mouse MET protein) was “bind to only human MET; also recorded: minimal cross reactivity to the mouse MET”, the “inhibition of growth of resistant Hcc827-GR6 cells” value (shortened to “inhibition”) (Hcc827-GR6 cells; listed as C2 diabody) was “some inhibition at high concentrations; also recorded: inhibition only at high concentrations” and the “binding to human MET protein” value (human MET protein) was “bind to only human MET”. For the same molecule, the “effect on growth of sensitive Hcc827 cells with gefitinib” value (Hcc827 cells) was “protects the sensitive Hcc827 cells from gefitinib inhibition”.

B2: F1 ScFv antibody (phage-displayed) (scFv)
scFv: QVQLVQSGAEVKKPGASVKVSCKASGYTFTDYYMHWVRQAPGEGLEWMGWMNPNSGGTNYAQKFQGRVTMTRDTSISTAYMELSRLRSDDTAVYYCARSHYWDSWSPGTLVTVSSGGGGGSGGGGSGGGGSSALTQPASVSGSPGQSITISCTGTSGDVGGYNYVSWYQQHPGKAPKLMIYDVSNRPSGVSNRFSGSKSGNTASLTISGLQAEDEADYYCTSYAGSRNLVFGGGTKLTVLG
notes: The fusion to the phage coat protein is not described
B2: binds [1].

B3: H5 cys-diabody: human anti-c-Met cys-diabody comprising SEQ ID NO:24 (protein)
chain: QVQLQESGGGLVQPGGSLRLSCAASGFTFSNYAMSWVRQAPGKGLEWVSAISGSGGSTYYADSVKGRFTISRDNSKNTLYLQMNSLRAEDTAVYYCAKDRFRAAAYWGQGTLVTVSSGGGGGSQSVLTQPPSVSAAPGQKVTISCTGSSSNIGAGYDVHWYQQLPGTAPKLLIYGNSNRPSGVPDRFSGSKSGTSASLAISGLQSEDEADYYCAAWDDILNGEIFGGGTKVTVLGAAAEQKLISEEDLNGAAHHHHHHC
modifications: H5 cys-diabody sequence
B3 was tested, and the “cross reactivity to mouse MET protein” value (mouse MET protein) was “bind to only human MET; also recorded: minimal cross reactivity to the mouse MET”, the “inhibition” value (Hcc827-GR6 cells) was “inhibition of the resistant cells at higher concentration” and the “inhibition” value (Hcc827-GR6 cells; listed as H5 diabody) was “some inhibition at high concentrations; also recorded: inhibition only at high concentrations”. The “binding to human MET protein” value (human MET protein) was “bind to only human MET”.
